# Test results: patent US20110046056A1, “APOA-1 PEPTIDE MIMETICS” (priority 2007, published 2011)
# *1 amine or outer side, *2 acyl side, *3 side chain or, on linkers, in order; H or OH if unused. Where a SMILES comes first, the peptide text is derived from it. Bridges are numbered along the chain shown (N, C = ends). Where no end group is shown, it is not given here. Side-chain parts run from the residue outwards. [ ]: non-standard residue; d: D form. S6H = (2S)-2-aminooct-7-enoic acid, C=CCCCC[C@H](N[*:1])C(=O)[*:2]; OXA12 = PEG spacer connecting glycine to cholesterol; dGly(6-heptenyl) = C=CCCCCC[C@@H](N)C(=O)O; Ala(5-hexenyl) = C=CCCCCC[C@H](N)C(=O)O; Gla = N[C@@H](CC(C(=O)O)C(=O)O)C(=O)O; R5H = not defined here; MA = not defined here; Aib = CC(C)(N)C(=O)O
# Biological target: ATP-binding cassette transporter A1 (ABCA1) (mouse, UniProt P41233 1-2261)
# Test: cell-based or functional assay
# Settings: not given
# ATP-binding cassette transporter A1 (ABCA1), sequence (P41233 whole entry): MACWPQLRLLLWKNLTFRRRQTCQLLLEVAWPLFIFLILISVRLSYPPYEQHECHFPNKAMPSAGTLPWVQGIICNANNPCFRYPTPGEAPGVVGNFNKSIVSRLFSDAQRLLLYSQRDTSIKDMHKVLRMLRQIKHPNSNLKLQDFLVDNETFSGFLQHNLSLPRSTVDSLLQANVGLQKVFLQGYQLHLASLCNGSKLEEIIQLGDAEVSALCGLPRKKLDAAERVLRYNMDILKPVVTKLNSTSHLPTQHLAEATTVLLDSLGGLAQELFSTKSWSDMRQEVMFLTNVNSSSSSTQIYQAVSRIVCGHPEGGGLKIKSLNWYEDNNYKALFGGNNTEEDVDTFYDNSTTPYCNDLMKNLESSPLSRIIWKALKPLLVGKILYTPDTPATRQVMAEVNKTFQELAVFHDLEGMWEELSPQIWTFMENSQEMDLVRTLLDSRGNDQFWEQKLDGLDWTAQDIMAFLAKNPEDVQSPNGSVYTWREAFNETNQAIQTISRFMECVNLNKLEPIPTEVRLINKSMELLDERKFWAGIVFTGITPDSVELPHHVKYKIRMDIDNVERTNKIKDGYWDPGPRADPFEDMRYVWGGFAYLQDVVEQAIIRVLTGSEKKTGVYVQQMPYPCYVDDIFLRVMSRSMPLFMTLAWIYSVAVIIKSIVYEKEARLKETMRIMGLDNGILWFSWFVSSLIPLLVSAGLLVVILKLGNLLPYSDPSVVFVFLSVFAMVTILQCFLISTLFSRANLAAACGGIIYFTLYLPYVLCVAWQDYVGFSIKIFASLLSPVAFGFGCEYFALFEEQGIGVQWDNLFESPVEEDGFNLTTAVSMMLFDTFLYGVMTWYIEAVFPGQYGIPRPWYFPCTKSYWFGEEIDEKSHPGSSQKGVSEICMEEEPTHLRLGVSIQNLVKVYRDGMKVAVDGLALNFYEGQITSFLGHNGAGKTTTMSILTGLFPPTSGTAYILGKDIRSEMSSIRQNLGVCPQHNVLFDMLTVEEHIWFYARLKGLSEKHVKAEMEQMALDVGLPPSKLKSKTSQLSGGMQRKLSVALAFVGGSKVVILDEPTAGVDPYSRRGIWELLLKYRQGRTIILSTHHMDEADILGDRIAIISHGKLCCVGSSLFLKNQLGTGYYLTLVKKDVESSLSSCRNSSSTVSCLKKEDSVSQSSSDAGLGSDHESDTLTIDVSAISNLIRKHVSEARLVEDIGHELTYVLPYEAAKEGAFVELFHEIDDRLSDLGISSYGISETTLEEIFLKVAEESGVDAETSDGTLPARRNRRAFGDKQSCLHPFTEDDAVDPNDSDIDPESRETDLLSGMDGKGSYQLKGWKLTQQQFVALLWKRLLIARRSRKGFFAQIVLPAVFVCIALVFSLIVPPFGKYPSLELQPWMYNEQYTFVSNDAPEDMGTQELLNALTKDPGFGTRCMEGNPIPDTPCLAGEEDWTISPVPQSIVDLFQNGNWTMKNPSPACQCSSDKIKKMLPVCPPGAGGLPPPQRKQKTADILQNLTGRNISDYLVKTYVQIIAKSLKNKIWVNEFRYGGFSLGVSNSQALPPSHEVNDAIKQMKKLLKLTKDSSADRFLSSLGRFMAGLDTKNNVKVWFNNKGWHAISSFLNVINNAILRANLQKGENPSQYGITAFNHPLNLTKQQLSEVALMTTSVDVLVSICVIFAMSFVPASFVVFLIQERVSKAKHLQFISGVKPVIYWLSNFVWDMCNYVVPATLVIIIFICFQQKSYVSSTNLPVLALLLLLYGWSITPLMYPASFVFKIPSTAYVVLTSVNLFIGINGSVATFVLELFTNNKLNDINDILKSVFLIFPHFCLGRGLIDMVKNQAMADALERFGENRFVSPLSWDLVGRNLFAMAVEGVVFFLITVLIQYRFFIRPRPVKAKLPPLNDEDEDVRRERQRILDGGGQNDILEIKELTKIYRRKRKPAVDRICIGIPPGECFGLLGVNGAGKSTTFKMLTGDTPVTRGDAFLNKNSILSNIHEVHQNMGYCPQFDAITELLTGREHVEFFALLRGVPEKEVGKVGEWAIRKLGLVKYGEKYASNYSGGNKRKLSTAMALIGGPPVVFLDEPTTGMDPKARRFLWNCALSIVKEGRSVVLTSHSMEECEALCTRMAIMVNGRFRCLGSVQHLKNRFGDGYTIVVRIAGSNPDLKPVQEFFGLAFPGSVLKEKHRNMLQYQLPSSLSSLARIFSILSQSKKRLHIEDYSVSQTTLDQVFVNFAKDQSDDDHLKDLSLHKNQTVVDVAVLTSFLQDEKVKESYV
Molecule,ABCA1-dependent cholesterol efflux EC50 [µM],"ABCA1-dependent cholesterol efflux, % at 30 uM [%]","ABCA1-dependent cholesterol efflux, % at 100 uM [%]"
"Ac-[dP][dV][dL][dD][dE][Ala(5-hexenyl)][dR][dE][dK][dL][dN][dE][Ala(5-hexenyl)][dL][dE][dA][dL][dK][dQ][dK][dL][dK] (not fully specified (C-terminus)) [D-CONS[S7H^6,13]]",3,,
"Ac-PVLDE[Ala(5-hexenyl)]REKLNE[Ala(5-hexenyl)]LEALKQKLKGCPVLDE[Ala(5-hexenyl)]REKLNE[Ala(5-hexenyl)]LEALKQKLKGC (disulfide 24-48; also: homodimer of two 24-residue chains listed as one 48-residue chain, second N-terminal acetyl not placed) [(CONS[S7H^6,13]-GC)2]",1.5,,
"Ac-PVLDE[Ala(5-hexenyl)]REKLNE[Ala(5-hexenyl)]LEALKQKLKGC([MA-OXA12-Gly-cholesterol]) (not fully specified; reading uncertain) [CONS[S7H^6,13]-GC-OXA12-CHOLESTEROL]",,1.9,
"PXLDEXREKLNEXLXALKQKLK (not fully specified; N-terminal acetyl (Ac-Pro); S7H at 2, 6 and 13; Gla at 15) [CONS[GLA^15, S7H^2,6,13]]",0.6,,
"Ac-PVLDE[Ala(5-hexenyl)]REKLNE[Ala(5-hexenyl)]LEALKQKLKGC(branched mPEG 40 kDa) [CONS[S7H^6,13]-GC-PEG40]",,,1
Ac-PVLDEFREKLNE[Ala(5-hexenyl)]LEALKQKLKPVLDEFREKLNE[Ala(5-hexenyl)]LEALKQKLK [CONS[S7H^13]2],41,,
Ac-PVLDEFREKLNE[R5H]LEA[R5H]KQKLK (reading uncertain) [R5H [E13-L17]R5H OPEN],,< 3,
Ac-PVLDEFRE[R5H]LNE[R5H]LEALKQKLK (reading uncertain) [R5H [K9-E13]R5H OPEN],46,,
"Ac-[dP][dV][dL][dD][dE][S6H][dR][dE][dK][dL][dN][dE][dGly(6-heptenyl)][dL][dE][dA][dL][dK][dQ][dK][dL][dK] (not fully specified (C-terminus)) [D-CONS[S6H^6, R7H^13]]",1.2,,
"Ac-P[Ala(5-hexenyl)]LDE[Ala(5-hexenyl)]REKLNE[Ala(5-hexenyl)]LEALKQ[Ala(5-hexenyl)]LK [CONS[S7H^2,6,13,20]]",2,,
"Ac-[dP][dV][dL][dD][dE][dGly(6-heptenyl)][dR][dE][dK][dL][dN][dE][dGly(6-heptenyl)][dL][dE][dA][dL][dK][dQ][dK][dL][dK] [D-CONS[R7H^6,13]]",,,17.7
Ac-[dP][dV][dL][dD][dE][dF][dR][dE][dK][dL][dN][dE][dGly(6-heptenyl)][dL][dE][dA][dL][dK][dQ][dK][dL][dK] [D-CONS[R7H^13]],1.1,,
"Ac-P[Ala(5-hexenyl)]LDE[Ala(5-hexenyl)]REKLNE[Ala(5-hexenyl)]L[Gla]ALKQ[Ala(5-hexenyl)]LK [CONS[S7H^2,6,13,20, GLA^15]]",2.4,,
Ac-[dP][dV][dL][dD][dE][dGly(6-heptenyl)][dR][dE][dK][dL][dN][dE][dE][dL][dE][dA][dL][dK][dQ][dK][dL][dK] (not fully specified (C-terminus)) [D-CONS[R7H^6]],,,19

# Biological target: T1, ABCA1 cholesterol transporter protein (Mus musculus, UniProt P41233)
# T1 construct: endogenous in cells
# Test: ABCA1-dependent cholesterol efflux from RAW mouse macrophage cells (in vitro RCT assay)
# Assay type: cell-based
# Settings: AT 30 µM / @ 30
# Excerpt: Peptides of the present invention were designed based on amphipathic properties and their abilities to solubilize phospholipids and promote cholesterol efflux. The most direct functional measurement of efficacy for the ApoA-1 peptide mimetic is its capacity to improve the efflux of cholesterol from the cell. The RAW and J774 cell lines are reliable mouse macrophage cell lines frequently used in the art for this purpose. […] The RAW cell line is preferred and recited in the description below.
# In the present assay, the RAW cells are plated at 1.5×10^5 cells/200 μl/well/48-well plate in DMEM complete medium (with 10% FBS from INVITROGEN and 1% penicillin-streptomycin-glutamine from GIBCO) and ^3H-cholesterol at 5 μCi/ml. After 24 hours incubation in a moist 37° C. atmosphere with 5% CO2, the spent medium is removed, the cells are washed once with serum-free DMEM (0.1% fatty acid free bovine serum albumin replaces the FBS), and fresh serum-free medium (200 μl) is added to each well. After overnight incubation in the serum-free medium to allow the cellular cholesterol pools to equilibrate, the spent medium is removed, and fresh serum-free medium is added with/without CPT-cAMP (150 μM final). Eight-point serial titrations of the peptide/s being tested are added at this time (duplicate titrations in plain medium without cAMP and duplicate titrations in medium containing cAMP).
# After 24 hours incubation in the various conditions, the medium is harvested from each well and 50 μl aliquots are counted. The cells are then lysed by adding 500 μl of HEPES/Triton lysis buffer to each well. The lysis is facilitated by freezing and thawing once. After thawing, the lysates are mixed well and 50 μl aliquots are counted.
# The percent efflux of each peptide in each medium condition (±cAMP) is calculated by dividing the total counts in the medium by the sum of the total counts in the medium and lysate. The percent efflux seen with plain medium is subtracted from the percent efflux seen with the cAMP-stimulated efflux to yield the reported ABCA1-stimulated values. EC50 values are determined using PRISM software (Table 2).
# T1 sequence (P41233 whole entry): as the sequence (P41233 whole entry) above
row,Molecule,"ABCA1-DEPENDENT CHOLESTEROL EFFLUX, % at one concentration [% AT 30 UM]"
1,11 (Ac-PVLDEFREKLNE[R5H]LEA[R5H]KQKLK; staple 13-17; reading uncertain) [compound 11],<2

# Same assay, conditions: AT 100 µM / @ 100
row,Molecule,"ABCA1-DEPENDENT CHOLESTEROL EFFLUX, % at one concentration"
1,6 (Ac-PVLDEFREKLNE[Aib]LEALKQKLK; not fully specified (C-terminus)) [compound 6],6% AT 100 UM
2,"22 (Ac-PVLDEFREKLNEELEALKQXLK; not fully specified (residue 20, C-terminus); printed as PVLDEFREKLNEELEALKQR7HLK) [compound 22]",1.4% @ 100

# Same assay, conditions: AT 150 µM
row,Molecule,"ABCA1-DEPENDENT CHOLESTEROL EFFLUX, % at one concentration [% AT 150 UM]"
1,7 (Ac-PVLDEFREKLNE[Aib]LE[Aib]LKQKLK; not fully specified (C-terminus)) [compound 7],5

# Same assay, conditions: read-out: EC50 in the cholesterol efflux assay (RCT in vitro assay)
row,Molecule,EC50 [µM]
1,"CCCCCCCCCCCCC(NC(=O)[C@H](CCC(=O)O)NC(=O)[C@H](CC(=O)O)NC(=O)[C@H](CC(C)C)NC(=O)[C@@H](NC(=O)[C@@H]1CCCN1C(C)=O)C(C)C)C(=O)N[C@@H](CCCNC(=N)N)C(=O)N[C@@H](CCC(=O)O)C(=O)N[C@@H](CCCCN)C(=O)N[C@@H](CC(C)C)C(=O)N[C@@H](CC(N)=O)C(=O)N[C@@H](CCC(=O)O)C(=O)N[C@@H](CCC(=O)O)C(=O)N[C@@H](CC(C)C)C(=O)N[C@@H](CCC(=O)O)C(=O)N[C@@H](C)C(=O)N[C@@H](CC(C)C)C(=O)N[C@@H](CCCCN)C(=O)N[C@@H](CCC(N)=O)C(=O)N[C@@H](CCCCN)C(=O)N[C@@H](CC(C)C)C(=O)N[C@@H](CCCCN)C(N)=O (single isomer, unassigned) [SEQ ID NO 37, PVLDE-(RS)12H3-REKLNEELEALKQKLK]",0.1 to 0.4
2,"CCCCCCCCCCCCC(NC(=O)[C@H](CCC(=O)O)NC(=O)[C@H](CC(N)=O)NC(=O)[C@H](CC(C)C)NC(=O)[C@H](CCCCN)NC(=O)[C@H](CCC(=O)O)NC(=O)[C@H](CCCNC(=N)N)NC(=O)[C@H](Cc1ccccc1)NC(=O)[C@H](CCC(=O)O)NC(=O)[C@H](CC(=O)O)NC(=O)[C@H](CC(C)C)NC(=O)[C@@H](NC(=O)[C@@H]1CCCN1C(C)=O)C(C)C)C(=O)N[C@@H](CC(C)C)C(=O)N[C@@H](CCC(=O)O)C(=O)N[C@@H](C)C(=O)N[C@@H](CC(C)C)C(=O)N[C@@H](CCCCN)C(=O)N[C@@H](CCC(N)=O)C(=O)N[C@@H](CCCCN)C(=O)N[C@@H](CC(C)C)C(=O)N[C@@H](CCCCN)C(N)=O (single isomer, unassigned) [SEQ ID NO 38, PVLDEFREKLNE-(RS)12H3-LEALKQKLK]",0.2 to 0.4
3,"CC(=O)N1CCC[C@H]1C(=O)N[C@H](C(=O)N[C@@H](CC(C)C)C(=O)N[C@@H](CC(=O)O)C(=O)N[C@@H](CCC(=O)O)C(=O)N[C@@H](Cc1ccccc1)C(=O)N[C@@H](CCCNC(=N)N)C(=O)N[C@@H](CCC(=O)O)C(=O)N[C@@H](CCCCN)C(=O)N[C@@H](CC(C)C)C(=O)N[C@@H](CC(N)=O)C(=O)N[C@@H](CCC(=O)O)C(=O)NC(C)(C)C(=O)N[C@@H](CC(C)C)C(=O)N[C@@H](CC(C(=O)O)C(=O)O)C(=O)N[C@@H](C)C(=O)N[C@@H](CC(C)C)C(=O)N[C@@H](CCCCN)C(=O)N[C@@H](CCC(N)=O)C(=O)N[C@@H](CCCCN)C(=O)N[C@@H](CC(C)C)C(=O)N[C@@H](CCCCN)C(N)=O)C(C)C [SEQ ID NO 4, PVLDEFREKLNEAIBLGLAALKQKLK] (Ac-PVLDEFREKLNE[Aib]L[Gla]ALKQKLK-NH2; C-terminus assumed)",41
